The source of these data is a protein production outcome set (Wang et al. 2014).

The data set can be described thus: label from the status in PepcDB records.
As for “MTKFNYKSSLYLFNTIFLISLTTLGTMVMIPFAVESKIPKKTSNSISPFCKVLSEKFSPFGAAPDLSVALGKAIAEGGNLNQPCDIFGEKWLPLNFLLSTDEELSQRLIQTGVNVNAKDGKGDTPLHYLGKSEKNARLLLSRGAKVNVGNQNGNTPLHNLFGQKTAYVIKLLIDRGAKVNARNQEQMTPLHFAANSGKADITELLISRGGDVNARSTQNWTPLHYGASNLEVAKKLIQAGADLTIQNREGAVIHSSSLEPAVLKLLLDRGVNVNLRNRQGQTPLHIHRFQPALVKLLLARKAQVNLRDAQGKTPLYDVNLEVARQLVAANADLNVQDNLGRTPLHQAVLEEQSFFGSELVTLFLSKNARVDLKDKQGKTALDLARQLNKTQIINLLERHMATKNSPGSGTSTTKATEQLQQFLKSKNWSAADQETRRLLSPQKDLFGLNAATIPLDLIQEIDRAWLVASDGRFGLSVQAKIWQKVIASHPNNSETAANTFRDRVGWKLKVARTENDFISSDWLNESELNYSLQAPVGHLPWAGVSDASVLSLAVPPPGEHCGSCTIDAMFLRDGRFYKYLPQLFARVKMALNMNVSRPKSLAIAKK”, the protein production entry was “failed”. Consider “MFYTTKSSMNQHNIFFGSSHVVVPVTKPFPFSLDGHVEDEDNLESQYLQWLEERVDENNNINDDQSVGERDVGDDDIDRLADKFIARCHEKFLLEKVESYRRFQDMLARSL”, for which the protein production result is “failed”. Take “MPTCAPAMVTTLYETPEHACLMFSDLVDDHDDQSVQTNQFLVVDHGHGALIDPGGNMTYNALYLAMNQYFPPKQLDYVLASHADPDIVASAGRWLTSSNCNILISRVWERFLPHFCNVGKTDGRILPIPDTGMAIPIGQSHLLAVPAHFLHSEGNFQFYDPVSRILFSGDLGASMVHAEIAAAPVEDFDAHIPLMAPFHRRYMSGNRVCRLWAEMVRGLEIEWIVPQHGRAFHGPAMVRRFIDWVETLTCGIDLMTQETFRLPALPRVAAGAPLRTPQP”: the protein production entry was “failed”.

Regarding “MRKMTGEEFDPLVSFFDGMAQASWLRPVHDRLKKGTGSWANRAVLDVGCGTGRLLARGVHEAAHLAGVDLSKQMVLATEERLHEHKQCGRLTVVQGDAYDLPFADESFDVCLSTCVMFLLPEPERGMKEMIRVLNGAGVIGMLNPTNKMNHAAAKAYCKKSGITGFEEKTLLQWSNVSTRRHRYTAEQLTHFFKQHGAWVVTHELVLDGLAVVTVASWNKLEHHHHHH”, the protein production entry is “not failed”.

For the sequence “MTTTIEVGMLGLGTVGSGVVERLTRSAAKIEQTQGIRLHLAAVAVNHLNAPRTVQLPIGTRLTDSLTNVVCDRKIQLVIEVMGTVATAKKAIVAALNQGKAVVTANKDLIATAGPELAALAKKQGCDLFYEASVAGGIPILRTLTDSYVTDNVQAVSGIINGTANYMLSAMATGQSYEQALATAQATGYAEADPTNDVAGIDAAYKLMILSRFAFGQELSLPQIAPTGITHLSASVCRLAAENGWQIKLLAQIQRHGSGLYCRVAPVAVPVDQPLSQINGVQNAVAVQSEAIGTSLYTGPGAGSTATANSVLNDVLVAAKHLINGYRMIRNQKRSVSLTVTRFDQLPQTYLGIGPVAPEAVKYYANEADFSVKTIADDCYQITGLSAVKRKKLRANLPLTLIPIAGTTDWKQVTENSITSPINVAILEHHHHHH”, the protein production entry is “not failed”.

“MTASPIVVFDLDGTLIDTAPDLINALNFILVREGMPAVPMAVARNMIGQGARRLLERGLELDGRVIAQDDVNRLTVDFIDYYAAHIADESRPFEGLEATLDELSESGYRFAVCTNKLEWLSKLLLDRLGLSPRFAAICGADTFGVAKPDPAILRETVAKAGGDLSAAIMVGDAGPDVGVARRAGVPVIGVEFGYTEVPIAELQPDLLVGHMRELPNAVGRLLPR”: the protein production entry was “not failed”. “AIAEPGSPAGAGAEAPAFYSERKLSRKQLKKLAKAEREYEEERRKELEAAQAVDTAQKRELARIESILRTHALRMEYVEPDGHCLFRALVRQLRPLIQSGLFDTYFPAADTETRSALLTWSTIPDEMEAVWLLRKTLASFIRRRGTEFFPFIVGELDPQGTLLDASDDPAERVAQYCARLEDGTLWGGQPELQAVALALRCRVFVFADPEILPNGMLVMGADDASTDTGAESVTALRVSFHKQFFSLGEHYHAVVPADDSRGDARDPRISAS”: the protein production result was “not failed”. For the sequence “MKVYLESFGCSASQASAEIMKASIGKLGHELLSPENAGQAEVYICNSCTVKYTTEQKILYKIRSMGEKGVQVIVSGCMPEVQLEDILHANPEAHILGVNAVSRLGDLLSTIEQRKKTGIPGGERLEIRTSEPQGFLNVPRERSNPNIHICQISQGCNFACSYCIVKHARGKLLSFPPEEIIEDIRSAVADGCREIWLTSQDDSQYGMDTGVKLPELLRAISEIPGDFKVRVGMMNPFSVLPILDDLVDAFDSDKIFKLLHLPIQSASHSVLKKMNRLHKMDSVDEIITKFRAHFEDLSLFTDIIVGFCDETDEDFEETIEWVKKYRPEKINISRYSPRPHTKAFSFRNLDSRISVKRSHQLHKVCEQIKIESKNEMIGWKGRVFVSKYTEIGDVLTRTDSYRPVVISGSDLRPGEYAEVKITGAKPGYFLGKLVSLEHHHHHH”, the protein production result is reported as “not failed”.

Consider “MSSSLMTSSGFRFLFPIALLGMVSVGMGNIIQMTQSNWGIAANLPYILLGCALVLCYSFKQGRESMVCLSMLVAYFVIQHRLQVPLNSGTALLELTILATLLPVSFLTVFLFNKDGFDSKAMFIYVLMLVMFILWSYIILAYYVDGGFEQWTSGILFIVPSVSKLPFILVLYCVGIVCFLGILLLKTNKIIHAMTYSAMALASATFIFFDVQYISSTMFTLTGLLIIIYSTSASHQLAFTDSLTQIPSRRALDLDLKHMGRKFTIAMLDVDHFKKFNDTYGHDIGDDVLKMVASRLMKTRGGAKVYRFGGEEFTMVFKGKNVEDCRQYIEEARKAIAEYEMILRDKASRPDDHKQGQQNRGTEDMQRESVFVTASFGAADSRNGREPAEVIKLADAALYKAKKAGRNCTRVNQN”, for which the protein production result is listed as “failed”. As to “MPQITLVFISLSGNTLSFVKRLSLYLADNYDYHVKQINIKDLKHETFPVKEEFVAILPTYLEGGNGVDSGDVEILTTPLGEFIAAHGNAQRCLGIIGSGNKNFNHQYCLTAKQYAKRFGFPLLGDFELRGTPDDISRLAQVIMEASSRHSSNDTQTL”, the protein production entry is “failed”. Consider “SFGVKDAIFKIKRSIAGTDSSDSTAYTTASESSPQLKDSHNPFRNKTTSERTIVEEGSLPPVRLNGYLPSTKNKLLTPEMCDEIRTLMPTRIQLYTEWNLLYSLEQHGSSLHSLYSNVAPDSKEFRRVGYVLVIKDRKNGIFGAYSNEAFHPNEHRQYTGNGECFLWKLDKVPDVNISEKEESEQEGKEGKEEGDKEERWRFSGYPYTGVNEFAIYCTSEFLSMGAGDGHYGLLCDDGLLHGVSNPCQTYGNEVLSKEGKKFSIVALEVWRVG”, for which the protein production result is given as “not failed”. Turning to “MSMTKSEVCVIIAAKNAARTIAVAIASALREPEAAEVVVVDDGSTDNTAEVARSADDGSGRLKVMRLDVNRGPSFARNAAIAGSKAPFISILDADDFFLEGRFRNLFAAADWDFAADNIMLIRDDATNDATKIVAPDFAADPEFLDFERFVEGNISRRRVQRGELGFLKPVISRAFLDRHRLRYDESLRLGEDYELYARAVAHGARFKVIRSCGYGAIVRADSLSGRHKTQDLKRLADADLALLAIDSLPEGSKAVLRRHERHVRDKYRLRNFLDVKAERGLASAAAYAFASQSNLVPIVQGVASDKLEALFRRVGLVSRQKRVPPLRFLMAGTSAGKER”, the protein production result was “failed”.

For “MSARMFVLCCIWFIVAFLWITITSALDKEWMIDGRGINNVCDVLMYLEEDDTRDVGVIMTLPLFFPFLWFALWRKKRGWFMYATALAIFGYWLWQFFLRYQFCL”, the protein production result was “failed”. As for “MSNTTRQAGSQGSLDAFFKITQRGSNVRQEVLAGLTTFLAMVYSVIVVPSMLGKAGFPPTAVFVATCLVAGLGSLLMGLWANLPMAIGCAISLTAFTAFSLVLGQQISIPVALGAIFLMGVLFTIISVTGIRSWILRNLPLGVAHGTGIGIGLFLLIIAANGVGLVVKNPIDGLPVALGNFTSFPVIMSLLGLAATIGLEKRRVPGGILLVIVVISILGLIFDPNVKYAGFFALPSLTAADGSSLIFSLDIMGALQPLVLPSVLALVMTAVFDATGTIRAVAGQANLLDKDGQIINGGKALTADSVSSIFCSLVGTSPAAVYIESAAGTAAGGKTGLTATVVGVLFLLLLFVSPLAYLVPGYATAPALMYVGLLMLGNVSKLNFDDFVDAMSGLVCAVFIVLTCNIVTGIMLGFGALVLGRICSGEWRKLNIGTVIIAVALVAFYAGGWAL”, the protein production entry is recorded as “failed”.

Turning to “MGMGSNGELKYEISQNAYIKLVLHSLRHKTAAVNGVLVGRISPKDDGVVEISDSVPLFHSNLALLPPLEISLIMIEEHYVAQGLSIVGYFHANERFDDVELCGVAKNIGDHISRYFPQAPILLLNNKKLEALSKGKERSPVMQLCVKDASKNWRVVGADGGSKLLLKEPSANVVLSDYISSEKWKDVTDVDDHLDDVTKDWLNPGLFN”, the protein production result is given as “failed”. Turning to “RPAIRKRLLKPKVLDSSPRALVGHRAEVLEDVGATSGQVRLDGSIWSARSMDPTHTFAEGEIVSVIDIQGTTAIVWKEA”, the protein production entry is “not failed”. Regarding “MHLYDKRPGGGASFSQILGQAKNRQGIFFNTTFAVMGHVAKASGRVTETDIRIATLLMDQMRLTGDARKEAQQAFREGKEPDFDLCSSLQAFRAVTQGRQELVQMFIEIQIQTALSDGELDAAEHAILMTVAQELGYGRLEHHHHHH”, the protein production entry is reported as “failed”. Take “KQQKDGSWLMDALIPLNELKYKLGLTTIEGEESEGFQTLNGFLTWWLGRLPHAGELVDYEGWQFEVLNVKHHRIVQVKVSRETESETTTDTNDGDANP”: the protein production result was “not failed”. As for “AWGLAATGKEFLWVMRPDSVAGEEAVIPKEFLAETADRRMLTSWCPQEKVLSHPAVGGFLTHCGWNSTLESLSCGVPMVGIEIGGDVKRGEVEAVVRELMDGEKGKKMREKAVEWRRLAEKATKLPCGSSVINFETIVNKVLLGKIPNT”, the protein production entry was “failed”. “MAPAPAAEFWEARYRDTGRVWSGRPNELLVQEAGGLAPGTALDLGCGEGADAVWLASRGWRVTGVDISATALERAAGHADGAGVGDRVLWERHELGPSFPEGSFDLVSAHYLQSPVALDQQAVLRAAARAVAPGGTLLVVMHAGWPSWQTEPPFDAAFPTLDGVLAELALPEGEWSVETRRTARRPSVAPDGTEGFREDHVWRLKRAVLEHHHHHH”: the protein production entry is on record as “not failed”. The entry for “MIRALSMHLLDRLTIRLFHDERQKQFSGDHARSLGWSSTESQFLRFKTMTQAINFEQKTVLDLGCGYGDFKTFLDMSCCIKSYTGVDQQSSFIKQAKSLFKHHTNCEFIKADFSATTLPKADIVVASGSLNYRARNKTYHAKVIKEMYERAEEAVIFNLLNSEHFTSSSLLEAHDPQQVLKYCLSFCPDSELITDYANEDFTIVMRHSNSSKLEHHHHHH” is “not failed”; for “SLRTKSWTDDLKVCNQTGVGEAINQIYKDDGRRCEGYESRDKKCLCISDNNTSLYAILSGHNGVTVAENALQEMAAELLLGQLNVCNTDEAVKELIRQSFMSVEKGYFDSINPHVATKTAIQLHLSADGMNQYEISQQFENVLQKLDSLNNALSVGSSAVLALIHRSHLYLGNIGNCRALLCKTDEHDTLTVTQLSVDHNLLNAEEAARLFRLGLMAQNFEGVPLYSTRCIGNYLGKAGYKDCNFLSSATAEPVIFEPEIVGGIQITPACRFLVLMSSGLCRALHEIFPGDASTGNRELVRMISEEFQNQSTLGGVAQSVVHRIVQAHHDTYMQLVEEHRSVTFNSRDDVTLLIRNFNYA” it is “not failed”.
